Among the data in patent US20110191903A1, “ENGINEERING PLANT RESISTANCE TO DISEASES CAUSED BY PATHOGENS” (Pioneer Hi-Bred International, Inc., priority 2009, published 2011) are Km and kcat values, retold here.

Substrate in series [1]: O=C(O)C(=O)O
The experiment in a line: Oxalate oxidase kinetics, coupled horse radish peroxidase assay, OXOX-C. The format is biochemical, Ceriporiopsis subvermispora. The source says:
(§1) Sequences of both OXOX C and G alleles were published by Escutia et al., 2005 and were deposited with EMBL: OXOX-C partial genomic DNA, Acession No. AJ746414; OXOX-C partial cDNA, Acession No. AJ563659; OXOX-G genomic DNA, Acession No. AJ563660; OXOX-G cDNA, Acession No. AJ746412. See also, Escutia et al., Cloning and sequencing of two Ceriporiopsis subvermispora bicupin oxalate oxidase allelic isoforms: implications for the reaction specificity of oxalate oxidases and decarboxylases. (2005). Based on published sequence, mature proteins of OXOX C (SEQ ID NO: 21) and G (SEQ ID NO: 22) were synthesized and fused to N-terminal barley alpha amylase signal sequence (BAA ss; SEQ ID NO:3). The fungal OXOX coding sequence was synthesized with codon usage suitable for expression in soybean (FIG. 1A) and E. coli (FIG. 1B).
(§2) The E. coli expression system was based on the published protocol of Escutia et al. Escutia et al., Cloning and sequencing of two Ceriporiopsis subvermispora bicupin oxalate oxidase allelic isoforms: implications for the reaction specificity of oxalate oxidases and decarboxylases. (2005). The coding sequence for the mature OXOX enzyme was inserted in E. coli expression vector pET32 (Invitrogen) to include a 6× histidine tag at the C-terminus. The resulting expression plasmid was transformed into E. coli strain BL21Star pLysS (Invitrogen).
(§3) E. coli cultures were grown at 37° C. At optical density 0.4, arabinose was added to a concentration or 0.4%. After another hour of growth at 37° C., MnCl2 was added to 5 mM and IPTG to 1 mM. Cultures were then grown at 25° C. for 16 hours. Cells were harvested by centrifugation at 4000 rpm for 10 min. The supernatant was discarded and cell pellets were kept at −80° C. for at least one hour. Pellets were resuspended in total 40 ml of lysis buffer with 50 mM phosphate buffer pH7, 2 mg/ml protease inhibitor (sigma P-8465), 100 mM KCL, 1/1000 lysozyme, 1/2000 endonuclease, and incubated at 37° C. with shaking for one hour, followed by sonication. Cellular debris was removed by centrifugation and the clarified supernatant was poured into a new tube. Nickel resin (Qiagen) was added. After a short period of incubation, the slurry was poured onto a column and washed with buffer. Purified OXOX protein was eluted from the resin in 50 mM succinate pH 5, 100 mM KCl. The E. coli expression procedure was scalable allowing large scale protein production for kinetic analysis as well as small scale production for high throughput screening of libraries.
(§4) Oxalate oxidase enzymatic activity was determined in a coupled reaction. Oxalate oxidase converts oxalic acid to carbon dioxide and hydrogen peroxide. In the presence of horse radish peroxidase, hydrogen peroxide reacts with 3-methyl-2-benzothiazolinone hydrazone (MBTH) and N,N-dimethylaniline (DMA) to form indamine dye, which can be detected spectrophotmetrically or colorimetrically as described by Laker, M. F., Hoffman, A. F., and Meeuse, J. D. (1980) Clinical Chemistry 26, 827-830. The coupled reaction was used for characterization of oxalate oxidase kinetic properties as well as in a screening procedure to identify oxalate oxidase variants with improved enzymatic properties.
(§5) More modest improvements in Km and Kcat were observed under lower pH conditions. Coupled reaction was preformed as described in Example 3. Enzyme kinetic parameters were determined by standard methods as described in Segel (1976) Biochemical calculations, 2nd Edition. John Wiley & Sons, London, New York, Sydney, Toronto.

Substrate in series [2]: O=C(O)C(=O)O
As to the kind of experiment: Oxalate oxidase kinetics, coupled horse radish peroxidase assay, OXOX-G. The format is biochemical, Ceriporiopsis subvermispora.
From the text: as §1, §2, §3, §4, §5

For orientation: Km means the substrate concentration at which the rate is half of its maximum. A word on the kcat: it is the number of substrate molecules converted per active site and unit of time at saturation.

B1: Ceriporiopsis subvermispora oxalate oxidase OXOX-C, SEQ ID NO: 18 (Gelatoporia subvermispora B) (protein)
chain: RPTENGPQIVIANNAGTYLPVLRGSGTKSSSAADATQTVPFASDDPNPRLWDIDTKNLTKVTPERGQLGAKILGPDNLPIDLQNADTLAPPTTDSGSIPNPKWPFALSHNTLYSGGWVRIQNDEVMPIAKAMAGVNMRLEAGAIRELHWHNTPEWAYILKGTTQITAVDQNGRNYLANVGPGDLWYFPEGMPHSLQGTDANNEGSEFLLIFPDGTFDSSNQFMITDWLAHTPKDVIAKNFGVDISEFDRLPSHDLYIFPGVAPPLDAKAPEDPQGTIPLPYSFEFSKVKPTQYAGGTVKIADTRTFPIAKTISVAEVTVEPGAMRELHWHPTEDEWTFFIEGQARVTIFAGQSNAQTYDYQGGDIAYIPTAWGHYVENSGNTTLRFLEIFNSPLFEDVSLAQWIANTPPAIVKATLQLSDEVINTLNKSKAFVVG
On to B1, for which the Km in series [1] (other: pH 3.8, pH 3.8) is 350 µM; in series [1] (other: pH 4.8, pH 4.8), 1240 µM; in series [1] (other: pH 5.8, pH 5.8) it was 5950 µM. For the same protein, the kcat in series [1] (other: pH 3.8, pH 3.8) came out at 5.45 s⁻¹; in series [1] (other: pH 4.8, pH 4.8), 2.74 s⁻¹; in series [1] (other: pH 5.8, pH 5.8), 0.91 s⁻¹.

B2: Ceriporiopsis subvermispora oxalate oxidase OXOX-G, SEQ ID NO: 19 (Gelatoporia subvermispora) (protein)
chain: RPTGNDVFYLPRAVAVSSAGASSPASLSSGTESSSAAEPTETVPFASDDPNPRLWNIDTQDLSVVAPERGPLGAKIIGPDNLPLDIQNADTLAPPTTDSGSIPNAKWPFALSHNTLYTGGWVRIQNNEVLPIAKAMAGVNMRLEAGTIRELHWHNTPEWAYILKGTTQITAVDENGKNYLANVGPGDLWYFPEGMPHSLQGTNASDEGSEFLLIFPDGTFDASNQFMITDWLAHTPKDVIAKNFGVDISEFDRLPSHDLYIFPGVAPPLDATAPEDPQGTIPLPYSFEFSKVVPTQYAGGTVKIADTRTFPISKTISVAEITVEPGAMRELHWHPTEDEWTFFIEGQARVTLFAGESNAQTYDYQGGDIAYIPTAYGHYVENSGNTTLRFLEIFNSPLFQDVSLTQWLANTPRAIVKATLQLSDNVIDSLNKSKAFVVASD
Take B2: the Km turned out to be 400 µM in series [2] (other: pH 3.8, pH 3.8); 1370 µM in series [2] (other: pH 4.8, pH 4.8); 6140 µM in series [2] (other: pH 5.8, pH 5.8). Further, the kcat in series [2] (other: pH 3.8, pH 3.8) worked out at 4.80 s⁻¹; in series [2] (other: pH 4.8, pH 4.8) it was 2.56 s⁻¹; in series [2] (other: pH 5.8, pH 5.8), 0.82 s⁻¹.
